Data: US20230357447A1 (JANUX THERAPEUTICS, published 2023)

B1: Phage-119 (peptide)
peptide: MDWCPRYLWHMCYS
B2: Phage-120 (peptide)
peptide: MDWCPRDLWHACFS
B3: Phage-141 (peptide)
peptide: MDWCPRSLWNVCFF
B4: Phage-147 (peptide)
peptide: MHWCPRDLWVVCFN
B5: Phage-162 (peptide)
peptide: MNWCPTDLWHECFN
B6: Phage-160 (peptide)
peptide: MHWCPRALWHECFN
B7: Phage-159 (peptide)
peptide: MAWCPMNLWDQCFF
B8: Phage-156 (peptide)
peptide: MDWCPKHLWHQCFH
B9: Phage-146 (peptide)
peptide: MDWCPRHLWSECFY
B10: Phage-211 (peptide)
peptide: MDWCPRNMWTVCFL
B11: Phage-143 (peptide)
peptide: LDWCPLNLWDLCYF
B12: Phage-122 (peptide)
peptide: MDWCPRDLWDQCYA
B13: Phage-148 (peptide)
peptide: MHWCPEYLWNECFA
B14: Phage-155 (peptide)
peptide: MHWCPLHLWNECYH
B15: Phage-152 (peptide)
peptide: MDWCPKYLWDKCFH
B16: Phage-129 (peptide)
peptide: MDWCPSYLWTVCFA
B17: Phage-125 (peptide)
peptide: MDWCPVSLWHVCFY
B18: Phage-140 (peptide)
peptide: MDWCPMDLWDVCFN
B19: Phage-117 (peptide)
peptide: MDWCPRYLWFECFS
B20: Phage-137 (peptide)
peptide: MDWCPRYLWHECFH
B21: Phage-135 (peptide)
peptide: MDWCPKFLWHECFS
B22: Phage-118 (peptide)
peptide: MDWCPRHLWDECFF
B23: Phage-166 (peptide)
peptide: MDWCPRHLWDLCFA
B24: Phage-153 (peptide)
peptide: MDWCPRHLWDLCFF
B25: Phage-161 (peptide)
peptide: MDWCPRHLWDQCFA
B26: Phage-133 (peptide)
peptide: MDWCPRFLWDECFF
B27: Phage-128 (peptide)
peptide: MDWCPRDLWIECFF
B28: Phage-134 (peptide)
peptide: MDWCPSYLWHECFA
B29: Phage-121 (peptide)
peptide: MDWCPRDLWHVCFF
B30: Phage-178 (peptide)
peptide: LDWCPRDLWHVCFF
B31: Phage-144 (peptide)
peptide: MDWCPRHLWYACFN
B32: Phage-132 (peptide)
peptide: MDWCPTYLWFECFN
B33: Phage-131 (peptide)
peptide: MDWCPRSLWIYCFN
B34: Phage-142 (peptide)
peptide: MDWCPVILWDFCFN
B35: Phage-126 (peptide)
peptide: MDWCPRFLWNECFN
B36: Phage-136 (peptide)
peptide: MHWCPIYLWDECFN
B37: Phage-180 (peptide)
peptide: MHWCPRYLWDECFN
B38: Phage-127 (peptide)
peptide: MDWCPRALWNECFA
B39: Phage-145 (peptide)
peptide: MDWCPKHLWIECFA
B40: Phage-130 (peptide)
peptide: MDWCPRYLWDACFF
B41: Phage-150 (peptide)
peptide: MDWCPRHLWNVCFS
B42: Phage-204 (peptide)
peptide: MDWCPRHMWNVCFS
B43: Phage-154 (peptide)
peptide: MDWCPRDLWNVCFA
B44: Phage-149 (peptide)
peptide: MDWCPRDLWAVCFA
B45: Phage-139 (peptide)
peptide: MDWCPRDLWDVCFA
B46: Phage-169 (peptide)
peptide: MDWCPRDLWNVCFN
B47: Phage-157 (peptide)
peptide: MDWCPRSLWSYCFH
B48: Phage-158 (peptide)
peptide: MDWCPRYLWTECFF
B49: Phage-123 (peptide)
peptide: MDWCPIHLWNECFA
B50: Phage-138 (peptide)
peptide: MDWCPTNLWHECFA
B51: Phage-151 (peptide)
peptide: MDFCPISLWHECFF
B52: Phage-124 (peptide)
peptide: MDWCPRPLWDMCFF

Legend:
[1] = target: T1, Anti-CD28 scFv (VH-linker 1-VL) (biotinylated for capture on neutravidin plates); experiment: phage ELISA, scFv captured on plate, competitor soluble CD28;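 also: crude clonal phage supernatants added to wells pre-incubated with soluble CD28 or with blocking buffer only as control, bound phage read out with HRP-linked anti-M13 antibody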
Description: (§1) Clonal phage were harvested as crude supernatants and screened via standard enzyme linked immunosorbent assays (ELISAs). […] Prior to the addition of clonal phage, wells were incubated with blocking buffer and CD28 soluble protein or blocking buffer alone. Without washing or aspirating, clonal phage supernatants were then added to the wells and incubated for a short time. Wells were then washed followed by detection of bound phage using a horse radish peroxidase conjugated anti-M13 antibody.

[2] = target: T1, Anti-CD28 scFv (VH-linker 1-VL); experiment: phage ELISA, scFv captured on plate;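 also: crude clonal phage supernatants added to wells preincubated with soluble CD28 or with blocking buffer only, bound phage read out by HRP-linked anti-M13 antibody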
Description: as §1

T1 sequence (scFv, as listed by the source): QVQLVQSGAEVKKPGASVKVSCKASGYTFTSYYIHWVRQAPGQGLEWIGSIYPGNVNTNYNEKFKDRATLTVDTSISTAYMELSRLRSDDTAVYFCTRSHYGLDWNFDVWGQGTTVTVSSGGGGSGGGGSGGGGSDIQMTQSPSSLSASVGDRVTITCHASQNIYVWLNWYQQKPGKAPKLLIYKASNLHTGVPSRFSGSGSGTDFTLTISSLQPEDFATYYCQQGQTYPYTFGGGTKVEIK

| Binder | Phage binding ELISA CD28 scFv signal in presence of CD28 [1] | Phage binding ELISA CD28 scFv signal [2] |
| --- | --- | --- |
| B1 | 1.17 | 2.42 |
| B2 | 0.173 | 2.41 |
| B3 | 0.356 | 2.13 |
| B4 | 0.112 | 1.83 |
| B5 | 0.095 | 1.09 |
| B6 | 0.144 | 1.18 |
| B7 | 0.145 | 1.2 |
| B8 | 0.108 | 1.35 |
| B9 | 0.199 | 1.92 |
| B10 |  | 1.12 |
| B11 | 0.095 | 2.03 |
| B12 | 0.201 | 2.41 |
| B13 | 0.092 | 1.69 |
| B14 | 0.113 | 1.37 |
| B15 | 0.109 | 1.54 |
| B16 | 0.096 | 2.34 |
| B17 | 0.409 | 2.4 |
| B18 | 0.263 | 2.15 |
| B19 | 0.235 | 2.46 |
| B20 | 0.308 | 2.19 |
| B21 | 0.142 | 2.28 |
| B22 | 0.663 | 2.46 |
| B23 | 0.096 | 0.925 |
| B24 | 0.182 | 1.4 |
| B25 | 0.144 | 1.12 |
| B26 | 0.246 | 2.28 |

| Binder | Phage binding ELISA CD28 scFv signal in presence of CD28 [1] | Phage binding ELISA CD28 scFv signal [2] |
| --- | --- | --- |
| B27 | 0.137 | 2.37 |
| B28 | 0.198 | 2.28 |
| B29 | 0.268 | 2.41 |
| B30 | 0.105 | 0.61 |
| B31 | 0.159 | 2.01 |
| B32 | 0.224 | 2.33 |
| B33 | 0.401 | 2.34 |
| B34 | 0.173 | 2.03 |
| B35 | 0.503 | 2.4 |
| B36 | 0.193 | 2.23 |
| B37 | 0.127 | 0.55 |
| B38 | 0.375 | 2.38 |
| B39 | 0.132 | 1.98 |
| B40 | 0.168 | 2.34 |
| B41 | 0.176 | 1.61 |
| B42 | 0.13 | 2.25 |
| B43 | 0.145 | 1.38 |
| B44 | 0.089 | 1.67 |
| B45 | 0.28 | 2.16 |
| B46 | 0.108 | 0.74 |
| B47 | 0.152 | 1.33 |
| B48 | 0.244 | 1.26 |
| B49 | 0.203 | 2.4 |
| B50 | 0.096 | 2.16 |
| B51 | 0.129 | 1.58 |
| B52 | 0.138 | 2.4 |
